Data as given in PMC4636849.

Tested on: H-NS
Assay: EMSA
Details: EMSA: ~5 ng DNA, 50 ng poly(dI-dC), 15 ul, 20 C 10 min; binding buffer not stated (cited); 7% polyacrylamide gel in TAE (Tris-HCl 40 mM pH 7.4, Na acetate …)

## mdtJI promoter fragment, 588 bp (-229 to +359)
  K half: 320 nM
